Results taken from patent publication US20130209365A1 (ACADEMIA SINICA, published 2013).

B1: phage-displayed anti-c-Met scFv PC1 (scFv, not shown: large carriers)
scFv: MAQVQLQQSGPGLVKPSQTLSLTCDISGDSVSSNSAAWNWIRQSPSRGLEWLGRTYYRSRWYNEYAVSVRGRISINAETSKNQFSLQLNSVTPEDTAIYYCARAGFCSGGNCYPGSEDAFDLWGQGTMVTVGGGGSGGGGSGGGGSDVVMTQSPPSLSVSVGDRVTITCRASQDITNDLNWYQQKPGKAPQLLIYHASELETGVPSRFSGSGFGTDFTLTISSLQPADIATYYCQQYDDLPLTFGGGTKVEIKR
notes: tested as whole phage; also called anti-c-Met phage clone 1
B2: phage-displayed anti-c-Met scFv PC21 (scFv, not shown: large carriers)
scFv: MAEVQLVESGPGLVKPSGTLSLKCDASAISMDSNYWWSWLRQPPGKGLEWIGEISHSGSTDYNPSLKSRATISIDKSKKQFFLRLKSVTAADTAVYYCAGLLSPLDAFDEWGQGTMVTVGGGGSGGGGSGGGGSDIQMTQSPSSLSASVGDRVTITCRASQRVATYLNWYQQKPGKAPNLLIYEASSLQSGVPSRFSGRRSGTDFTLTISSLQPEDFATYYCQQSYNTPYTFGQGTRLEIKR
notes: tested as whole phage; also called anti-c-Met phage clone 21

Biological target: T1, BSA control protein (bovine, UniProt P02769 25-607)
T1 construct: also called bovine serum albumin
T1 sequence (P02769 25-607 limits assumed): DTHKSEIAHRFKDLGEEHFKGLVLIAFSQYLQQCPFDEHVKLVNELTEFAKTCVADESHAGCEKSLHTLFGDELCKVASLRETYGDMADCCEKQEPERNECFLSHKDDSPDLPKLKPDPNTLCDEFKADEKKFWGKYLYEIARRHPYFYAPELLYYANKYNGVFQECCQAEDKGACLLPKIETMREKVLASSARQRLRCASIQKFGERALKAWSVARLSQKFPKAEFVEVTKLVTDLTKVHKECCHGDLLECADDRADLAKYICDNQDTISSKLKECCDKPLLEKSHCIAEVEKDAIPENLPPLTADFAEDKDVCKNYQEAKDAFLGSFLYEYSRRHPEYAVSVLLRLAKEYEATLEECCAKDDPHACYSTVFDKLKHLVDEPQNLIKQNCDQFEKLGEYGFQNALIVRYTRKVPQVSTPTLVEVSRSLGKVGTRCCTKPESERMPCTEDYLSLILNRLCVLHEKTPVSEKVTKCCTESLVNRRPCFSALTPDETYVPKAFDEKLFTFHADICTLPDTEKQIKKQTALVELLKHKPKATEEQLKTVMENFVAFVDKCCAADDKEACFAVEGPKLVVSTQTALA
Experiment: phage ELISA

Binder | binding result
B1 | no binding
B2 | no binding
